Data reported in publication PMC2731525.
pKd: −log10 of the molar value.

What follows are substances tested against biglycan (UniProt P21810) (assay: solid-phase binding assay).
UniProt P21810, sequence (P21810 38-368): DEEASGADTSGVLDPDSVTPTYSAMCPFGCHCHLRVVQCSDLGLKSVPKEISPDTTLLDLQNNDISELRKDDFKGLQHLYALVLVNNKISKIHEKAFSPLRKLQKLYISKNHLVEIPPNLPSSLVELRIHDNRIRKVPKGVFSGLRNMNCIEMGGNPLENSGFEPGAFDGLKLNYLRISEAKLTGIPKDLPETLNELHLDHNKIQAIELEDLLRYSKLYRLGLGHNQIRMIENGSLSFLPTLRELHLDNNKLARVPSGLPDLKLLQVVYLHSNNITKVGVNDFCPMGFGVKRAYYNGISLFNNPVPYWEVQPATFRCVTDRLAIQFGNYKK

Row | Substance | pKd
1 | LDL with high apoCIII from patients with type 2 diabetes (from UniProt P02656 21-99) (complex) | 8.07
2 | LDL with low apoCIII from patients with type 2 diabetes (from UniProt P02656 21-99) (complex) | 7.91
3 | apoCIII-free LDL isolated from diabetic LDL with high apoCIII/apoB molar ratio (natural protein) | 8.01
4 | apoCIII-free LDL isolated from diabetic LDL with low apoCIII/apoB molar ratio (natural protein) | 7.89
